Data as given in US11906524B2, “Urea biosensors and uses thereof” (Duke University, priority 2015, dated 2024).
Positions count from the first letter of the chain named. Names and notes keep the numbering of the source.

B1: csUBP7 W90C: csUBP7 90C cysteine mutant (SEQ ID NO: 28), tested as Acrylodan and Badan conjugates (conjugate)
chain: MSSSESEKEKSEETIKVGILHSLSGTMSISEVSLKDAELMAIEEINNNGGVLGKKLEPIVEDGASDWPTFAEKAKKLLQKDKVAVIFGACTSASRKAVLPVVEENNGLLFYPVQYEGLESSPNIFYMGAAPNQQIVPAVKWLFDNGKKRFYLLGSDYVFPRTANKIIKAYLKYLGGVVVGEEYTPLGHTDYSSVINKIKAAKPDVVFNTLNGDSNVAFFKQLKDAGIDANTLPVMSVSIAEEEIKGIGPEYLKGHLVTWNYFQSVDTPENKEFVEKYKKKYGEDRVTDDPIEAAYIGVYLWAKAVEKAGSTDVDKVREAAKGIEFNAPEGPVKIDGDNQHLYKTVRIGEILENGQIRELWKTNKPVKPDPYLKGYEWAQGLSEQGGSHHHHHH
modifications: Acrylodan or Badan conjugate; csUBP7_90C (90C substitution mutant with signal peptide replaced with M and a GGSHHHHHH at C-terminus, and also comprising a C89A substitution)
B2: csUBP7 Y157C: csUBP7 157C cysteine mutant (SEQ ID NO: 37), tested as Acrylodan and Badan conjugates (conjugate)
chain: B1 chain with C90W, Y157C
modifications: Acrylodan or Badan conjugate; csUBP7_157C (157C substitution mutant with signal peptide replaced with M and a GGSHHHHHH at C-terminus, and also comprising a C89A substitution)
B3: csUBP7 T91C: csUBP7 91C cysteine mutant (SEQ ID NO: 29), tested as Acrylodan and Badan conjugates (conjugate)
chain: B1 chain with C90W, T91C
modifications: Acrylodan or Badan conjugate; csUBP7_91C (91C substitution mutant with signal peptide replaced with M and a GGSHHHHHH at C-terminus, and also comprising a C89A substitution)
B4: csUBP7 L186C: csUBP7 186C cysteine mutant (SEQ ID NO: 40), tested as Acrylodan and Badan conjugates (conjugate)
chain: B1 chain with C90W, L186C
modifications: Acrylodan or Badan conjugate; csUBP7_186C (186C substitution mutant with signal peptide replaced with M and a GGSHHHHHH at C-terminus, and also comprising a C89A substitution)
B5: csUBP7 E116C: csUBP7 116C cysteine mutant (SEQ ID NO: 36), tested as Acrylodan and Badan conjugates (conjugate)
chain: B1 chain with C90W, E116C
modifications: Acrylodan or Badan conjugate; csUBP7_116C (116C substitution mutant with signal peptide replaced with M and a GGSHHHHHH at C-terminus, and also comprising a C89A substitution)
B6: csUBP7 T69C: csUBP7 69C cysteine mutant (SEQ ID NO: 27), tested as Acrylodan and Badan conjugates (conjugate)
chain: B1 chain with T69C, C90W
modifications: Acrylodan or Badan conjugate; csUBP7_69C (69C substitution mutant with signal peptide replaced with M and a GGSHHHHHH at C-terminus, and also comprising a C89A substitution)
B7: csUBP7 N211C: csUBP7 211C cysteine mutant (SEQ ID NO: 41), tested as Acrylodan and Badan conjugates (conjugate)
chain: B1 chain with C90W, N211C
modifications: Acrylodan or Badan conjugate; csUBP7_211C (211C substitution mutant with signal peptide replaced with M and a GGSHHHHHH at C-terminus, and also comprising a C89A substitution)
B8: ctUBP6: urea-binding protein from Clostridium thermocellum, SEQ ID NO: 17 (protein)
chain: MVEEPVDNKPGTDTSAEDTIKVGILHSLSGTMAISEVSLKDAELMAIEEINQAGGLLGKKIEPVIEDGASDWPTFAEKAKKLLQNDKVATVFGCWTSASRKAVLPVFEENNGLLWYPVQYEGMESSPNIFYTGAAPNQQIVPAVEWLLENKGKRFFLLGSDYVFPRTANKIIKAQLSAIGGELIAEEYTPLGHTDYSTIVNKIKTAKPDVVFNTLNGDSNVAFFKQLKDAGITSEDITVCSVSVAEEEIRGIGAENIKGHLVSWNYYQTTDTPENKEFVEKYKSKYGSDRVTDDPIEAAYIAVHLWAEAVKKAGSFEVEKVKEAAKGLEFKAPEGLVKIEGENQHLWKPVRIGEVQEDGLIKEIWSTSEAVRPDPYLKTYDWAKGLSDGGSHHHHHH
modifications: ctUBP6 (with signal peptide replaced with M and a GGSHHHHHH at C-terminus)

test: Urea titration of emission intensity spectra (Nanodrop3300) with ratiometric analysis, singly labeled conjugates; assay type: binding; set-up: key to Acrylodan Intensity / Badan Intensity: +, increases in response to urea; −, decreases; 0, no change; key to Badan Dipoles / Acrylodan Dipoles: blue, (maxima <500 nm); g, green (maxima >500 nm); b/g, mixed population; key to Acrylodan Shape / Badan Shape: m, monochromatic; d, dichromatic (i.e. spectral shape changes); 0, no change; details: csUBP7 Acrylodan conjugate; emission intensity change on urea
Description: Determination of emission intensity spectra.
(§1) Ratiometric analysis of urea binding. […] 2
(§2) For a single urea-binding site, the fractional saturation is given by
(§3) [formula] where [L] is the ligand (urea) concentration and Kd the dissociation constant, ^trueKd for ytrue.
[formula] where ^appIλ2 and ^satIλ2 are the emission intensities of the monochromatic signal at wavelength λ2 of the ligand-free and ligand-bound protein, respectively.

Row | Molecule | Acrylodan Intensity
1 | B1 | +
2 | B2 | +
3 | B3 | −
4 | B4 | −
5 | B5 | +

same assay, conditions: csUBP7 Acrylodan conjugate; emission spectrum shape change on urea

Row | Molecule | Acrylodan Shape
6 | B6 | 0
7 | B1 | d
8 | B2 | m
9 | B3 | m
10 | B4 | d
11 | B5 | d
12 | B7 | 0

same assay, conditions: csUBP7 Acrylodan conjugate; estimated change in populations of major emission bands

Row | Molecule | Acrylodan Dipoles
13 | B6 | g (g, green (maxima >500 nm))
14 | B1 | b/g→b
15 | B3 | b/g
16 | B4 | b/g→g
17 | B5 | b/g→g
18 | B7 | g (g, green (maxima >500 nm))

same assay, conditions: csUBP7 Acrylodan conjugate; urea; read-out: Acrylodan ^trueKd

Row | Molecule | Kd [mM]
19 | B1 | 7.1
20 | B2 | 3.4
21 | B3 | 0.7
22 | B5 | 29

same assay, conditions: csUBP7 Badan conjugate; emission intensity change on urea

Row | Molecule | Badan Intensity
23 | B6 | −
24 | B1 | +
25 | B2 | +
26 | B3 | −
27 | B5 | −
28 | B7 | +

same assay, conditions: csUBP7 Badan conjugate; emission spectrum shape change on urea

Row | Molecule | Badan Shape
29 | B6 | d
30 | B1 | m
31 | B2 | m
32 | B3 | d
33 | B4 | 0
34 | B5 | m
35 | B7 | d

same assay, conditions: csUBP7 Badan conjugate; estimated change in populations of major emission bands

Row | Molecule | Badan Dipoles
36 | B6 | g→b/g
37 | B1 | b/g
38 | B2 | b/g
39 | B3 | b/g→b
40 | B4 | g (g, green (maxima >500 nm))
41 | B5 | b/g
42 | B7 | g→b/g

same assay, conditions: csUBP7 Badan conjugate; urea; read-out: Badan ^trueKd

Row | Molecule | Kd [mM]
43 | B6 | 0.007
44 | B1 | 8.5
45 | B2 | 16
46 | B3 | 0.6
47 | B5 | 10
48 | B7 | 15

test: Temperature- and urea-dependent fluorescence landscapes of fluorescent conjugates (Roche LightCycler); assay type: binding; set-up: key: y, yes; n, no; details: Acrylodan conjugate; fluorescent response to urea
Description: We constructed 20 single cysteine mutants in csUBP7, exploring 7 endosteric, 12 peristeric, and 1 allosteric position (FIG. 9). At each position we attached the Prodan-derived fluorophores Acrylodan and Badan, which differ by one methylene group in their thiol-reactive linker. The fluorescent responses of these conjugates was determined initially as a function of urea concentration and temperature (FIG. 10). […] The ligand dependence of the emission spectra shapes was determined for these conjugates (Table 8).
Determination of temperature- and ligand-dependent fluorescence landscapes. […] Urea concentrations were varied from 0-4.8 M in 20 mM KCl, 20 mM MOPS (pH 7.4). […] Temperatures were advanced in 1K steps.
as §1, §2, §3
To obtain the temperature dependence of the binding reaction, the Kd values of all the individually determined isotherms were fit the Gibbs-Hemholtz equation (Layton and Hellinga, 2010, Biochemistry, 49, 10831-41):
[formula] where ΔGb^•(T) is the standard free energy of binding at 1 M ligand at temperature T,
[formula] Δ^refHb^• and Δ^refSb^• the molar enthalpy and entropy of binding, respectively, at the reference temperature, Tref, and ΔCp,b the heat capacity of the binding reaction.

Row | Molecule | Response
49 | B6 | n
50 | B1 | y
51 | B2 | y
52 | B3 | n
53 | B4 | y
54 | B5 | y
55 | B7 | y

same assay, conditions: Badan conjugate; fluorescent response to urea

Row | Molecule | Response
56 | B6 | y
57 | B1 | y
58 | B2 | y
59 | B3 | y
60 | B4 | n
61 | B5 | y
62 | B7 | y

test: Thermal stability of purified UBP candidates (SYPRO Orange thermal melt, Roche LightCycler); assay type: physicochemical; details: apo-protein; SYPRO Orange monitors unfolded protein
Description: The urea-binding properties of these leads were determined experimentally (Table 4). These experiments comprise four successive steps: • 1. Synthetic gene construction. […] Heterologous protein expression of the homologues in E. coli. […] Verification of urea binding.
Analysis of urea-binding properties using thermal melts.

Row | Molecule | Thermostability ^apoTm [°C]
63 | B8 | 89
